Experimental data taken from article PMC11446014, “Human IL-22 receptor-targeted small protein antagonist suppress murine DSS-induced colitis” (Cell Communication and Signaling : CCS, 2024).

How the values were obtained:
Conditions in all cases: both partners purified
[1] = biological target: T1, recombinant human IL-22R1 (rhIL-22 Rα1) (human, UniProt Q8N6P7 16-228); test: ELISA; receptor (IL-22R1 or IL-22R1-IgG Fc) coated on MaxiSorp plate; serially diluted IL-22 (Fc chimera or His tag); detection by mouse anti-human IgG (Fc)-HRP or anti-His monoclonal antibody-HRP; BSA wells as control
T1 construct: recombinant human IL-22 receptor alpha (rhIL-22 Rα1); also called commercial IL-22R1; source: bought: R&D Systems
T1 sequence (looked up): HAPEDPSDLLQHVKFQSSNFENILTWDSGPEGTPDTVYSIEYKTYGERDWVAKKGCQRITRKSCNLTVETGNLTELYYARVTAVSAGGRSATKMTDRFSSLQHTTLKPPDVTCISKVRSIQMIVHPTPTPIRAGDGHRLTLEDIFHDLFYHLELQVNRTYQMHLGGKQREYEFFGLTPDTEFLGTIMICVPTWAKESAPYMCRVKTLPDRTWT

[2] = biological target: T2, recombinant human IL-22R1 (rhIL-22 Rα1) (human, UniProt Q8N6P7 16-228); test: ELISA; competition: human IL-22R1 coated (1 µg/ml) on MaxiSorp; purified ABD-derived variants serially diluted in PBS-T with 1% BSA with 1 nM IL-22 Fc chimera; IL-22-Fc detected by anti-human IgG (Fc) HRP
T2 construct: human interleukin-22 receptor alpha (IL-22R1), recombinant soluble protein; Probably the extracellular part; also called IL-22 receptor alpha; commercial IL-22R1; source: bought: R&D Systems
T2 sequence (looked up): T1 sequence (looked up)

[3] = biological target: T2, recombinant human IL-22R1 (rhIL-22 Rα1); test: ELISA; IL-22 on IL-22R1 coated on a MaxiSorp 96-well plate (Fig. S1)

B1: recombinant human IL-22 protein, Fc Chimera (Fc fusion, UniProt Q9GZX6 34-179, looked up)
chain: APISSHCRLDKSNFQQPYITNRTFMLAKEASLADNNTDVRLIGEKLFHGVSMSERCYLMKQVLNFTLEEVLFPQSDRFQPYMQEVVPFLARLSNRLSTCHIEGDDLHIQRNVQKLKDTVKKLGESGEIKAIGELDLLFMSLRNACI
notes: human interleukin-22 fused to human IgG Fc; also called IL-22-IgG Fc cytokine; IL-22 (Fc chimera); source: bought: Abcam
binding result [1]: binds

B2: recombinant human IL-22 protein, Fc Chimera (Fc fusion, UniProt Q9GZX6 34-179, looked up)
chain: B1 chain
notes: human interleukin-22; also called IL-22-Fc; IL-22 cytokine; source: bought: Abcam
binding result [2]: binds

B3: human IL-22 (ligand, UniProt Q9GZX6 34-179, looked up)
chain: B1 chain
notes: human interleukin-22; it may be m16 or m17; also called hIL-22; IL-22 cytokine; source: bought: Abcam (cell assays)
binding result [3]: binds
